The assay deals with cation-independent mannose 6-phosphate (M6P) receptor (MPR) (UniProt P11717). As to the kind of experiment: cell-based or functional assay.
Chain of UniProt P11717 (P11717 41-2491): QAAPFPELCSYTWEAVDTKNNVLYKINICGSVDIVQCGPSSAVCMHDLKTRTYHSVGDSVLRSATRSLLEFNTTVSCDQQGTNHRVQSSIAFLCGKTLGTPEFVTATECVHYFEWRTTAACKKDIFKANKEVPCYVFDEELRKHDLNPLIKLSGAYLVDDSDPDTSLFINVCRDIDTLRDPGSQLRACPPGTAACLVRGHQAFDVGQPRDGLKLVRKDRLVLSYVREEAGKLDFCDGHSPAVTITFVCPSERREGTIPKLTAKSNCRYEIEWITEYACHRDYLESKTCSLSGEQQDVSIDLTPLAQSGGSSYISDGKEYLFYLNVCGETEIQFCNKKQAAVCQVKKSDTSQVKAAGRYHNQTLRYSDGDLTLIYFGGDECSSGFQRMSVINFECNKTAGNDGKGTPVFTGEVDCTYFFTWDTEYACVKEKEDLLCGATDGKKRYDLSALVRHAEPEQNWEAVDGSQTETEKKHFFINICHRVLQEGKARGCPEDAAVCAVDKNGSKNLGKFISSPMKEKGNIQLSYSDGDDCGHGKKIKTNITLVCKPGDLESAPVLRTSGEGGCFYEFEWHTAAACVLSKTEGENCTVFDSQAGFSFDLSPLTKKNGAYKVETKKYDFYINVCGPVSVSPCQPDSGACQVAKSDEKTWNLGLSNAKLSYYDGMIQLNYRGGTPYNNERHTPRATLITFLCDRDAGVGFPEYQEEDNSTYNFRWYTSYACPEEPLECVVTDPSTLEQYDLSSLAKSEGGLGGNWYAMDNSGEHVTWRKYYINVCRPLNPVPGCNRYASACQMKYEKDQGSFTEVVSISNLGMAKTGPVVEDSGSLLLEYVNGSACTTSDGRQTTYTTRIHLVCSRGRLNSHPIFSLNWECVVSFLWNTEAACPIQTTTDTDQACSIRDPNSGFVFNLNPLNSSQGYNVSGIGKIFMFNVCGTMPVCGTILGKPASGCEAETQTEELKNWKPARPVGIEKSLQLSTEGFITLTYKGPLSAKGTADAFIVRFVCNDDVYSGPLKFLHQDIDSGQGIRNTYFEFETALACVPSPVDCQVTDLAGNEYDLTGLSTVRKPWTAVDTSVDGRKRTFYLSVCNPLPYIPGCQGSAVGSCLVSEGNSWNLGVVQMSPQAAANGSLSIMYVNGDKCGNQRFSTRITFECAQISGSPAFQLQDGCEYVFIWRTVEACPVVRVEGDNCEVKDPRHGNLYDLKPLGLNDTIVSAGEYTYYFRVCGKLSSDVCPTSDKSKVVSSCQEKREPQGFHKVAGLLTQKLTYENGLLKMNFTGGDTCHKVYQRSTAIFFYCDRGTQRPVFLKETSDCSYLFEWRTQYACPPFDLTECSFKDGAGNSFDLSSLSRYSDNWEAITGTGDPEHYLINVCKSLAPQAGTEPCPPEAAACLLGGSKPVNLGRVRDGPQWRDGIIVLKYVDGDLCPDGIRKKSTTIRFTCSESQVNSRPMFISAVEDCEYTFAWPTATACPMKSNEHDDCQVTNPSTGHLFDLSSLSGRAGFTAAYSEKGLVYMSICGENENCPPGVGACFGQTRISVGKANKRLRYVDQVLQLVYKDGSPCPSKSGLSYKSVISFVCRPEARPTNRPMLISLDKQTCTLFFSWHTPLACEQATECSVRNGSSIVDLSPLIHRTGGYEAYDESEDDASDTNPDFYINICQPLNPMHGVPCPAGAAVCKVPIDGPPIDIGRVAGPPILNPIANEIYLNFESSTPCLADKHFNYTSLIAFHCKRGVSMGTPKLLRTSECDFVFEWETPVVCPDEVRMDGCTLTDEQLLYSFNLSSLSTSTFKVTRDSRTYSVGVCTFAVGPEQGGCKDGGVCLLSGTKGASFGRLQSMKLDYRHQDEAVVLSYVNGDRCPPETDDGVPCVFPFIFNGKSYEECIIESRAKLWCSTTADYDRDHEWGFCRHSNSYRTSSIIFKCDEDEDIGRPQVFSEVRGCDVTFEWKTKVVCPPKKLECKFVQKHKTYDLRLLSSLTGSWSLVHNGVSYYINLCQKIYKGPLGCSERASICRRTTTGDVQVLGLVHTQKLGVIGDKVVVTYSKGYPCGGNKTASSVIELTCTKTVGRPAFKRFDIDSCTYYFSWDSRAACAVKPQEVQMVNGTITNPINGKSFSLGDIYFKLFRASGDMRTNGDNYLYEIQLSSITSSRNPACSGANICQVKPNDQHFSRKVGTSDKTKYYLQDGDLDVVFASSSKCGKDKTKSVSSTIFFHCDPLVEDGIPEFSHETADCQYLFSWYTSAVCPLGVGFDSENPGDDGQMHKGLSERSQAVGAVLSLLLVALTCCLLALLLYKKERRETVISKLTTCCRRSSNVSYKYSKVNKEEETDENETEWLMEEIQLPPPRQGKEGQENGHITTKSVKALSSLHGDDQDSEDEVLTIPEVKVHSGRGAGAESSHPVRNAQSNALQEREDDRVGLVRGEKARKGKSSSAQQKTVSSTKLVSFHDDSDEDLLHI

For the substance “alpha-L-iduronidase (IDUA) released by erythroid-induced MEL-KIiG cells (human IDUA cDNA) (from UniProt P35475 28-653) (enzyme)”, the intracellular IDUA level in LCLmps cells after uptake, relative to wild-type (% of wild-type levels) stood at 10 and the intracellular IDUA specific activity in LCLmps cells after 3 hr uptake from conditioned medium is 0.8 U/mg.

Source of the values: patent publication US20170327844A1.
